Results: paper PMC10501626 (PLOS Pathogens, 2023)

Target: T1, LGP2 regulatory domain (LGP2 RD, residues 537–678), wild type (human, UniProt Q96C10 537-678, biotinylated (biotin added at 3:1 molar ratio) for biolayer interferometry)
T1 construct: also called LGP2 RD WT; WT
T1 sequence (looked up): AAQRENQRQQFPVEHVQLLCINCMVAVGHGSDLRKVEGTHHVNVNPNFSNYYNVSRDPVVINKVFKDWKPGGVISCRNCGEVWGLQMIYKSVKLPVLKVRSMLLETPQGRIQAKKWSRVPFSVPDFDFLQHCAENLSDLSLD
Test: BLI
Details: both partners purified

B1: TBEV NS5 protein, purified (natural protein)
chain: GGSEGDTLGDLWKRKLNGCTKEEFFAYRRTGILETERDKARELLKRGETNMGLAVSRGTAKLAWLEERGYATLKGEVVDLGCGRGGWSYYAASRPAVMSVKACAIAGKGHETPKMVTSLGWNLIKFRAGMDVFSMQPHRADTIMCDIGESNPDAVVEGERTRKVILLMEQWKNRNPTATCVFKALAPYRPEVTEALHRFQLQWGGGLVRTPFSRNSTHEMYYSTAITGNIVNSVNIQSRKLLARFGDQRGPTRVPELDLGVGTRCVVLAEDKVKEKDVQERISALREQYGETWHMDREHPYRTWQYWAATACANRVGGALINGVVKLLSWPWNAREDVVRMAMTDTTAFGQQRVFKEKVDTKAQEPQPGTKVIMRAVNDWILERLARKSKPRMCSREEFIAKVKSNAALGAWSDEQNRWSSAKEAVEDPAFWQLVDEERERHLAGRCAHCVYNMMGKREKKLGEFGVAKGSRAIWYMWLGSRFLEFEALGFLNEDHWASRGSSGSGVEGISLNYLGWHLKGLSTLEGGLFYADDTAGWDTKVTNADLEDEEQLLRYMEGEHKQLAATIMQKAYHAKVVKVARPSRDGGCIMDVITRRDQRGSGQVVTYALNTLTNIKVQLIRMMEGEGVIEASDAHNPRLLRVERWLRDHGEERLGRMLVSGDDCVVRPVDDRFSGALYFLNDMAKTRKDIGEWDHSVGFSNWEEVPFCSHHFHELVMKDGRTLIVPCRDQDELVGRARVSPGCGRSVRETACLSKAYGQMWLLSYFHRRDLRTLGLAICSAVPVDWVPAGRTTWSIHASGAWMTTEDMLDVWNRVWILDNPFMHSKEKIAEWRDVPYLPKSHDMLCSSLVGRKERAEWAKNIWGAVEKVRKMIGQEKFKDYLSCMDRHDLHWESKLESSII
Binder B1 has a Kd of 1200 ± 800 nM.
